Key:
[1] = molecular target: eel follicle-stimulating hormone receptor wild-type (eel)

For “recombinant eel FSH (tethered eel FSH β/α) (ligand)”, the EC50 of cAMP accumulation (HTRF) in transfected CHO-K1 cells stimulated with rec-eel FSH, 0.01-1500 ng/mL (eel FSHR-N288Q (eel)) was 0.281 µg/mL, the EC50 of cAMP accumulation (HTRF) in transfected CHO-K1 cells stimulated with rec-eel FSH, 0.01-1500 ng/mL (eel FSHR-N120Q (eel)) was 0.283 µg/mL and the EC50 of cAMP accumulation (HTRF) in transfected CHO-K1 cells stimulated with rec-eel FSH, 0.01-1500 ng/mL [1] was 0.201 µg/mL. It also gave an EC50 of cAMP accumulation (HTRF) in transfected CHO-K1 cells stimulated with rec-eel FSH, 0.01-1500 ng/mL (eel FSHR-N272Q (eel)) of 0.327 µg/mL.

From PMC9655291
